Reference: patent publication US20070292907

System: bovine 19S complex (PA700)

Substance: USP14-ΔUBL (91-494) (purified recombinant, activation assay)
- activity toward UbVS (anti-ubiquitin immunoblot): showed extremely low activity toward UbYS, both in the absence and presence of the 19S regulatory particle
